Molecular target: sVP40Δ43 R214A (Sudan virus) (UniProt Q5XX06)
Experiment: SEC

sVP40Δ43 R214A (from UniProt Q5XX06 44-326) (domain or fragment)
octameric percentage of total VP40 AUC: 50%
